Measurements published in patent publication US20200262877A1, “ION CHANNEL-BINDING PEPTIDES AND METHODS OF USE THEREOF” (priority 2017, published 2020).

Experiments:
5HT3a = biological target: T1, 5HT3a (Homo sapiens, UniProt P46098); assay: Ion channel panel (IonWorks Barracuda): 5HT3a; format: cell-based
T1 construct: host or cells: HEK293 or CHO
T1 sequence (P46098 whole entry, looked up): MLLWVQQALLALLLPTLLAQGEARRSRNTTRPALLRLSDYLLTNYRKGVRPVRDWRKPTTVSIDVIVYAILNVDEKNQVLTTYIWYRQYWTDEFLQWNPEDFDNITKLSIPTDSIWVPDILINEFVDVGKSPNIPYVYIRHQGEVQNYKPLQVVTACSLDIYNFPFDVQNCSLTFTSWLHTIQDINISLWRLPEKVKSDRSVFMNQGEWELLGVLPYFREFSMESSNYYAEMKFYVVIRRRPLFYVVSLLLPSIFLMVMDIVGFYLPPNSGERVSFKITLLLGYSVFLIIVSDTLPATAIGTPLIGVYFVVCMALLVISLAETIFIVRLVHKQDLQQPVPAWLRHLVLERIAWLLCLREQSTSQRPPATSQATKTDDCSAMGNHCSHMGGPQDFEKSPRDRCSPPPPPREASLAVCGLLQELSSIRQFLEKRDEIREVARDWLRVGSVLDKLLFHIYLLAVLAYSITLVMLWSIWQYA
Procedure, shortened: (§1)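 Peptides were tested in duplicate at final 20 μM and 200 nM, with concentration set by amino acid analysis, in HEPES-buffered saline. They were applied for at least 5 min to HEK293 or CHO cells transfected with each channel. Currents were expressed as % inhibition, 1-(Ipeptide/Icontrol)×100, or % activation, Ipeptide/Icontrol×100, against a channel-matched reference compound.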

α3β4 = biological target: T2, α3β4 (Homo sapiens, UniProt P30926+P32297); assay: Ion channel panel (IonWorks Barracuda): α3β4; format: cell-based; conditions: 100% = no change, <100% = inhibition
T2 construct: host or cells: HEK293 or CHO
Procedure, shortened: as §1

α4β2 = biological target: T3, α4β2 (Homo sapiens, UniProt P17787+P43681); assay: Ion channel panel (IonWorks Barracuda): α4β2; format: cell-based; conditions: 100% = no change, <100% = inhibition
T3 construct: host or cells: HEK293 or CHO
Procedure, shortened: as §1

Cav2.1 = biological target: T4, Cav2.1 (Homo sapiens, UniProt O00555); assay: cell-based; conditions: 100% = no change, <100% = inhibition
T4 construct: host or cells: HEK293 or CHO
Procedure, shortened: as §1

Cav2.2 = biological target: T5, Cav2.2 (Homo sapiens, UniProt Q00975); assay: cell-based; conditions: 100% = no change, <100% = inhibition
T5 construct: host or cells: HEK293 or CHO
Procedure, shortened: as §1

Kv2.1 = biological target: T6, Kv2.1 (Homo sapiens, UniProt Q14721); assay: cell-based; conditions: 100% = no change, <100% = inhibition
T6 construct: host or cells: HEK293 or CHO
Procedure, shortened: as §1

GABA = assay: Ion channel panel (IonWorks Barracuda): GABA; format: cell-based; conditions: 100% = no change, <100% = inhibition
Procedure, shortened: as §1

Nav1.5 = Nav1.5 (Homo sapiens, UniProt Q14524); assay: in vitro; conditions: 100% = no change; for Activity of Nav1.5 with peptide, expressed as a percentage of the reference compound: peptide at 0.2 μM; for Activity of Nav1.5 with peptide (percentage of the reference compound): peptide at 20 μM
Procedure, shortened: as §1

hERG = hERG (Homo sapiens, UniProt Q12809); assay: in vitro; conditions: 100% = no change, <100% = inhibition
Procedure, shortened: as §1

Kir2.1 = biological target: T7, Kir2.1 (Homo sapiens, UniProt P63252); assay: Ion channel panel (IonWorks Barracuda): Kir2.1; format: cell-based; conditions: 100% = no change, <100% = inhibition
T7 construct: host or cells: HEK293 or CHO
Procedure, shortened: as §1

Kv1.1 = biological target: T8, Kv1.1 (Homo sapiens, UniProt Q09470); assay: cell-based; format: cell-based; conditions: 100% = no change, <100% = inhibition
T8 construct: host or cells: HEK293 or CHO
Procedure, shortened: as §1

Kv1.2 = biological target: T9, Kv1.2 (Homo sapiens, UniProt P16389); assay: cell-based; format: cell-based; conditions: 100% = no change, <100% = inhibition
T9 construct: host or cells: HEK293 or CHO
Procedure, shortened: as §1

Kv1.3 = biological target: T10, Kv1.3 (Homo sapiens, UniProt P22001); assay: cell-based; format: cell-based; conditions: 100% = no change, <100% = inhibition
T10 construct: host or cells: HEK293 or CHO
Procedure, shortened: as §1

Nav1.7 = biological target: T11, Nav1.7 (Homo sapiens, UniProt Q15858); assay: cell-based; format: cell-based; conditions: 100% = no change; for Activity of Nav1.7 with peptide, expressed as a percentage of the reference compound: peptide at 0.2 μM; for Activity of Nav1.7 with peptide (percentage of the reference compound): peptide at 20 μM
T11 construct: host or cells: HEK293 or CHO

NR2A = biological target: T12, NR2A (Homo sapiens, UniProt Q12879); assay: Ion channel panel (IonWorks Barracuda): NR2A; format: cell-based; conditions: 100% = no change, <100% = inhibition
T12 construct: host or cells: HEK293 or CHO
Procedure, shortened: as §1

NR2B = biological target: T13, NR2B (Homo sapiens, UniProt Q13224); assay: Ion channel panel (IonWorks Barracuda): NR2B; format: cell-based; conditions: 100% = no change, <100% = inhibition
T13 construct: host or cells: HEK293 or CHO
Procedure, shortened: as §1

TRPA1 = biological target: T14, TRPA1 (Homo sapiens, UniProt O75762); assay: Ion channel panel (IonWorks Barracuda): TRPA1; format: cell-based; conditions: 100% = no change, <100% = inhibition
T14 construct: host or cells: HEK293 or CHO
Procedure, shortened: as §1

TRPV1 = biological target: T15, TRPV1 (Homo sapiens, UniProt Q8NER1); assay: Ion channel panel (IonWorks Barracuda): TRPV1; format: cell-based; conditions: 100% = no change, <100% = inhibition
T15 construct: host or cells: HEK293 or CHO
Procedure, shortened: as §1

[1] = first of two Nav1.5 columns (probably TP1)
[2] = second of two Nav1.5 columns (probably TP2)
[3] = first of two Nav1.7 columns (probably TP1)
[4] = second of two Nav1.7 columns (probably TP2)

Nav1.5, sequence (Q14524 whole entry): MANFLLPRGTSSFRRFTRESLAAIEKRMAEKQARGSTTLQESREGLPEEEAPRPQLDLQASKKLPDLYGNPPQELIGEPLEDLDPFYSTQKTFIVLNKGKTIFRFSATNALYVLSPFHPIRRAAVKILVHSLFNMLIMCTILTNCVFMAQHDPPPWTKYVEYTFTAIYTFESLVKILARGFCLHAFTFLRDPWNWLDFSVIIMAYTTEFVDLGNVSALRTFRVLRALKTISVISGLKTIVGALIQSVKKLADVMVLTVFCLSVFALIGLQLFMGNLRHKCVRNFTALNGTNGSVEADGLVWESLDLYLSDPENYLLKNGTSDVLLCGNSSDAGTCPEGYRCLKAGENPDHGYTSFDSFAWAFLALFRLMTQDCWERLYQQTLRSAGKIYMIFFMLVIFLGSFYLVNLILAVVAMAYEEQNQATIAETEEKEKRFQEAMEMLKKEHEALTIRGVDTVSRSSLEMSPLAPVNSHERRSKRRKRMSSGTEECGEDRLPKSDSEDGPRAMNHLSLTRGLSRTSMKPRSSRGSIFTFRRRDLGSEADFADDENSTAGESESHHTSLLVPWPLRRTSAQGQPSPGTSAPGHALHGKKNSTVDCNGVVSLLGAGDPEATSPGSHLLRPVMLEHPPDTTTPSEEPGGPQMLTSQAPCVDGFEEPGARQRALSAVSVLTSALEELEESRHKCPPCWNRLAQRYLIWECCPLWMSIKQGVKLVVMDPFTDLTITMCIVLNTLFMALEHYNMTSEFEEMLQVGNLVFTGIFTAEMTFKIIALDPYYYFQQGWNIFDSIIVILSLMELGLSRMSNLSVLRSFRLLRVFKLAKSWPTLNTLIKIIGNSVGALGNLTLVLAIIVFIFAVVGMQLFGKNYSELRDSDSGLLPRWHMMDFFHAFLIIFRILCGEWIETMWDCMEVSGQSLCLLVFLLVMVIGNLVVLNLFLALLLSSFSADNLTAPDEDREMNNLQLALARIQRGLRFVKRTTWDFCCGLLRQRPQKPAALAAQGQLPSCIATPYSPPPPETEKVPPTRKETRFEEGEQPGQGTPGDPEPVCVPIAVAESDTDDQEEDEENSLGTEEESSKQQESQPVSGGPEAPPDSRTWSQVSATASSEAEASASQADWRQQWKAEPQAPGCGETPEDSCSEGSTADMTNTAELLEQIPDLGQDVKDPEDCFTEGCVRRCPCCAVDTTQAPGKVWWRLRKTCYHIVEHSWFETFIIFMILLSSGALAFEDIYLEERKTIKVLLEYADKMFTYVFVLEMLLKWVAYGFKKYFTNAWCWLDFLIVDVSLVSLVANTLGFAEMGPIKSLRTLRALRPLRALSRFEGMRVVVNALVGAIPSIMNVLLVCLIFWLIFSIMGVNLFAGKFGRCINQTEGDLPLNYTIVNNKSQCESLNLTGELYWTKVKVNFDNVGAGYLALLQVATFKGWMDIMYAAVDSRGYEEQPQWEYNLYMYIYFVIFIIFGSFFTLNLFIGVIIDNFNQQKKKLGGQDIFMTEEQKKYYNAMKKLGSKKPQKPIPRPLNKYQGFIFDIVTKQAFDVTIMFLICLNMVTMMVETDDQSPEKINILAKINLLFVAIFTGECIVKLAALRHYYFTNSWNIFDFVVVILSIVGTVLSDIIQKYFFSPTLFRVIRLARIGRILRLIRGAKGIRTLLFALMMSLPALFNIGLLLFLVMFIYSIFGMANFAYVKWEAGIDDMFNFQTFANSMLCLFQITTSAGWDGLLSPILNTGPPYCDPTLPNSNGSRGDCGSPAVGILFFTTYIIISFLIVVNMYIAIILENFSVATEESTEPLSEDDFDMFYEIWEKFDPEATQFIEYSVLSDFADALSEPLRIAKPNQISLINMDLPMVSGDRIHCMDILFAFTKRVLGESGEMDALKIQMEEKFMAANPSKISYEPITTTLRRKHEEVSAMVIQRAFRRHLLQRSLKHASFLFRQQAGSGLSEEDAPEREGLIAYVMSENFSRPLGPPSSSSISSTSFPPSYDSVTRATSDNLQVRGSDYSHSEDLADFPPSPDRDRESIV
T11 sequence (Q15858 whole entry): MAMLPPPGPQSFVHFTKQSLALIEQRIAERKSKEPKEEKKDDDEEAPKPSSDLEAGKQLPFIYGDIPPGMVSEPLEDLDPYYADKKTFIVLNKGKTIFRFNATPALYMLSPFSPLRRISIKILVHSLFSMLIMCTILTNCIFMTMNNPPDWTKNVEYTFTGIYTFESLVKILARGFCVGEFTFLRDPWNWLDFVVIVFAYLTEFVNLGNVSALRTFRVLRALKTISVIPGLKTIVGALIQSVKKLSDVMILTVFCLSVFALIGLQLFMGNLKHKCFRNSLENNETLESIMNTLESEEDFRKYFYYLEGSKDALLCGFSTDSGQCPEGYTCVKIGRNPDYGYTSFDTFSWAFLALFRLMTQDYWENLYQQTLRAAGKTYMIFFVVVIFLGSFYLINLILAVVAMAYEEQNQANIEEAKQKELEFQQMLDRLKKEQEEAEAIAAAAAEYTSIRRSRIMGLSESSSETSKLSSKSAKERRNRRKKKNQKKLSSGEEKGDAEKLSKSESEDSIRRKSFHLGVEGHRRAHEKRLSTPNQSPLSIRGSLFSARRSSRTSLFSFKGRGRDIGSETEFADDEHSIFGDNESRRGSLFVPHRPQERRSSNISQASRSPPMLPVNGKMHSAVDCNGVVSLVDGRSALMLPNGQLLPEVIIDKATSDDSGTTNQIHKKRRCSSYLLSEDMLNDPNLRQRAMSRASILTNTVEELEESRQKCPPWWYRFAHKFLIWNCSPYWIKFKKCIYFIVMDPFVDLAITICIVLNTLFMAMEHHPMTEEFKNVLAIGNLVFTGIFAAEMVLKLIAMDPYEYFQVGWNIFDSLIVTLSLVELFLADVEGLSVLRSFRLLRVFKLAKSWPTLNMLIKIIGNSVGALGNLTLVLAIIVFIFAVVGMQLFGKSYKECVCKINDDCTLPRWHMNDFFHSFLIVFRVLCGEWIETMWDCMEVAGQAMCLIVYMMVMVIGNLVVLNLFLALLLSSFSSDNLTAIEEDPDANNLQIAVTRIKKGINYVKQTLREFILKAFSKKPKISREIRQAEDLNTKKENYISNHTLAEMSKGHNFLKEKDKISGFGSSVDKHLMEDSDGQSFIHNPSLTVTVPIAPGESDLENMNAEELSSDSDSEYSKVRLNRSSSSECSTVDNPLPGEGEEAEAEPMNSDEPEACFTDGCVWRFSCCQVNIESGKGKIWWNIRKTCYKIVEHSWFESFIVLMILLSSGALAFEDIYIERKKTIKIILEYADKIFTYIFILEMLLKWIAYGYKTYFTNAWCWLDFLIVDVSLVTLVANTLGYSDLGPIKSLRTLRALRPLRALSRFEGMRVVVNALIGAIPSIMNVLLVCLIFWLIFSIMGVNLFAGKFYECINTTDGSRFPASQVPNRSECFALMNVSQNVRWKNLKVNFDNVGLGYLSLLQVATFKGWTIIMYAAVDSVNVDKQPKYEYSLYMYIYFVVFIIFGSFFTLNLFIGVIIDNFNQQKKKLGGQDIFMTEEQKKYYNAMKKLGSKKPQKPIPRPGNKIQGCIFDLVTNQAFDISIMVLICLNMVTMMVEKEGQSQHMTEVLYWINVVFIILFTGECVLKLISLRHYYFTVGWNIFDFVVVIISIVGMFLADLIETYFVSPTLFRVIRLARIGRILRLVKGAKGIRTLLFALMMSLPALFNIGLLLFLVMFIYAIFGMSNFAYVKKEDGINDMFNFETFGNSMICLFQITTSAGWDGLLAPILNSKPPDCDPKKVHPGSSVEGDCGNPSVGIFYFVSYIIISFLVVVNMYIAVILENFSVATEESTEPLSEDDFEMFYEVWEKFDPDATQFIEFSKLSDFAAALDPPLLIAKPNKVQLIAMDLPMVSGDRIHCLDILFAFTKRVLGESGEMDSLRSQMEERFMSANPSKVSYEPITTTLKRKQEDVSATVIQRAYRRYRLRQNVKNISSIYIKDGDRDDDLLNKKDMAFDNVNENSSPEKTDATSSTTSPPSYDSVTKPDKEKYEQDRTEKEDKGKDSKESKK
T8 sequence (Q09470 whole entry): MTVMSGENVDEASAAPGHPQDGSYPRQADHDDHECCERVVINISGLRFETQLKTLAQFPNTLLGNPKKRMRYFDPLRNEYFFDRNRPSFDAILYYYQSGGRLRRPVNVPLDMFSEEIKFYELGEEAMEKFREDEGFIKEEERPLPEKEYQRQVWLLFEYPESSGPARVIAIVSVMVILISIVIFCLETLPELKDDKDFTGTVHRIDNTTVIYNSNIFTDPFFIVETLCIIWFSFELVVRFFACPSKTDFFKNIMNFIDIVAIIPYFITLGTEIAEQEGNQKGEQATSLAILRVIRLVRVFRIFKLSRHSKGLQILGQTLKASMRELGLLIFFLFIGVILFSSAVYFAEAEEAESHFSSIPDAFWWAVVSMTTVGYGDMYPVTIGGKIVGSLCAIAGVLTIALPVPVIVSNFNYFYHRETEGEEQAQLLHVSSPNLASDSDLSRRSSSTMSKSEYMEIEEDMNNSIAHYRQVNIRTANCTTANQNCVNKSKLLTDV
T10 sequence (P22001 whole entry): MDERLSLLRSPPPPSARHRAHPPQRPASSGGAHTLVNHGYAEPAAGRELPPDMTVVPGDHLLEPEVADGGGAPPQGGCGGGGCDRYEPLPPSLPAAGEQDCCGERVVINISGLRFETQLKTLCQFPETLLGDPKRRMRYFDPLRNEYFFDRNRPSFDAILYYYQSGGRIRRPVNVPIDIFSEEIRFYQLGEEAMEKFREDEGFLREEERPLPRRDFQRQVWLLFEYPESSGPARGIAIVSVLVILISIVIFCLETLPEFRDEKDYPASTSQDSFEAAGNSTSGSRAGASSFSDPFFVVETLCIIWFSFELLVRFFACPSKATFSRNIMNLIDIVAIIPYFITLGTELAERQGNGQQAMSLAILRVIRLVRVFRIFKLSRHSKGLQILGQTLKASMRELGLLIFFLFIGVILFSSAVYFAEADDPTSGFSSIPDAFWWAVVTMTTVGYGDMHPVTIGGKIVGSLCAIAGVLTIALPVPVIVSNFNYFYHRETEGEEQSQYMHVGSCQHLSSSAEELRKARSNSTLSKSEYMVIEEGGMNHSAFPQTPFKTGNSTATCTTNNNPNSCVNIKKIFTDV

Substance: 16 (GSQFCGTNGKPCVNGQCCGALRCVVTYHYADGVCLKMNP) [compound 16]
- Activity of 5HT3a with peptide (percentage of the reference compound) (5HT3a): 103%
- Activity of 5HT3a with peptide, expressed as a percentage of the reference compound (5HT3a): 114%
- Activity of a3b4 with peptide, expressed as a percentage of the reference compound (α3β4; peptide at 0.2 μM): 100%
- Activity of a3b4 with peptide (percentage of the reference compound) (α3β4; peptide at 20 μM): 95%
- Activity of a4b2 with peptide, expressed as a percentage of the reference compound (α4β2; peptide at 0.2 μM): 83%
- Activity of a4b2 with peptide (percentage of the reference compound) (α4β2; peptide at 20 μM): 72%
- Activity of Cav2.1 with peptide, expressed as a percentage of the reference compound (Cav2.1; peptide at 0.2 μM): 113%
- Activity of Cav2.1 with peptide (percentage of the reference compound) (Cav2.1; peptide at 20 μM): 92%
- Activity of Cav2.2 with peptide, expressed as a percentage of the reference compound (Cav2.2; peptide at 0.2 μM): 124%
- Activity of Cav2.2 with peptide (percentage of the reference compound) (Cav2.2; peptide at 20 μM): 104%
- Activity of Kv2.1 with peptide, expressed as a percentage of the reference compound (Kv2.1; peptide at 0.2 μM): 114%
- Activity of Kv2.1 with peptide (percentage of the reference compound) (Kv2.1; peptide at 20 μM): 98%
- Activity of GABA with peptide, expressed as a percentage of the reference compound (GABA; peptide at 0.2 μM): 102%
- Activity of GABA with peptide (percentage of the reference compound) (GABA; peptide at 20 μM): 109%
- Activity of Nav1.5 with peptide, expressed as a percentage of the reference compound (Nav1.5; [1]): 107%
- Activity of Nav1.5 with peptide, expressed as a percentage of the reference compound (Nav1.5; [2]): 104%
- Activity of Nav1.5 with peptide (percentage of the reference compound) (Nav1.5; [1]): 93%
- Activity of Nav1.5 with peptide (percentage of the reference compound) (Nav1.5; [2]): 93%
- Activity of hERG with peptide, expressed as a percentage of the reference compound (hERG; peptide at 0.2 μM): 74%
- Activity of hERG with peptide (percentage of the reference compound) (hERG; peptide at 20 μM): 71%
- Activity of Kir2.1 with peptide, expressed as a percentage of the reference compound (Kir2.1; peptide at 0.2 μM): 98%
- Activity of Kir2.1 with peptide (percentage of the reference compound) (Kir2.1; peptide at 20 μM): 92%
- Activity of Kv1.1 with peptide, expressed as a percentage of the reference compound (Kv1.1; peptide at 0.2 μM): 84%
- Activity of Kv1.1 with peptide (percentage of the reference compound) (Kv1.1; peptide at 20 μM): 67%
- Activity of Kv1.2 with peptide, expressed as a percentage of the reference compound (Kv1.2; peptide at 0.2 μM): 78%
- Activity of Kv1.2 with peptide (percentage of the reference compound) (Kv1.2; peptide at 20 μM): 61%
- Activity of Kv1.3 with peptide, expressed as a percentage of the reference compound (Kv1.3; peptide at 0.2 μM): 92%
- Activity of Kv1.3 with peptide (percentage of the reference compound) (Kv1.3; peptide at 20 μM): 92%
- Activity of Nav1.7 with peptide, expressed as a percentage of the reference compound (Nav1.7; [3]): 86%
- Activity of Nav1.7 with peptide, expressed as a percentage of the reference compound (Nav1.7; [4]): 91%
- Activity of Nav1.7 with peptide (percentage of the reference compound) (Nav1.7; [3]): 66%
- Activity of Nav1.7 with peptide (percentage of the reference compound) (Nav1.7; [4]): 43%
- Activity of NR2A with peptide, expressed as a percentage of the reference compound (NR2A; peptide at 0.2 μM): 101%
- Activity of NR2A with peptide (percentage of the reference compound) (NR2A; peptide at 20 μM): 95%
- Activity of NR2B with peptide, expressed as a percentage of the reference compound (NR2B; peptide at 0.2 μM): 88%
- Activity of NR2B with peptide (percentage of the reference compound) (NR2B; peptide at 20 μM): 91%
- Activity of TRPA1 with peptide, expressed as a percentage of the reference compound (TRPA1; peptide at 0.2 μM): 99%
- Activity of TRPA1 with peptide (percentage of the reference compound) (TRPA1; peptide at 20 μM): 116%
- Activity of TRPV1 with peptide, expressed as a percentage of the reference compound (TRPV1; peptide at 0.2 μM): 107%
- Activity of TRPV1 with peptide (percentage of the reference compound) (TRPV1; peptide at 20 μM): 88%
